Measured values reported in US20230348603A1 (VERSEAU THERAPEUTICS, published 2023).
Residue numbers refer to the chain shown, from its start. Numbers in names are those of the source.

T1: Human VSIG4-L-His (human, UniProt Q9Y279 20-283)
T1 construct: long isoform ECD with His tag; also called hVSIG4-L
T1 sequence: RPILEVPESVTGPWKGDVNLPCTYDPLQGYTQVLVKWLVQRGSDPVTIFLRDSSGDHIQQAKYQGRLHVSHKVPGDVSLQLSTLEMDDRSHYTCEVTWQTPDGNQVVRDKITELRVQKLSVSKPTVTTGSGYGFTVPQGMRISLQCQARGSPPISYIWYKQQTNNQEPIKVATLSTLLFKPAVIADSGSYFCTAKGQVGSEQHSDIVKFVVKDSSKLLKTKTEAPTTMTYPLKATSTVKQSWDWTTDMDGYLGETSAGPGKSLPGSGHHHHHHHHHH

T2: Cynomolgus Monkey VSIG4-L-His (cynomolgus monkey)
T2 construct: ECD with His tag; also called cyVSIG4-L; cyno VSIG4-L-His
T2 chain: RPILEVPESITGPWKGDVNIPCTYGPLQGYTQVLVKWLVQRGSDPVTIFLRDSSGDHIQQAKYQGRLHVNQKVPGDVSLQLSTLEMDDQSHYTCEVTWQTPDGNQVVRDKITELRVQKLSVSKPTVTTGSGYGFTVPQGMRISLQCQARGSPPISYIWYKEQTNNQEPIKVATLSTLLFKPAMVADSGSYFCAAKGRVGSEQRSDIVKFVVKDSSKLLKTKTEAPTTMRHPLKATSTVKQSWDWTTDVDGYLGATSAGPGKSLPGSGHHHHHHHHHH

B1: EU103.2 anti-VSIG4 antibody, human IgG4 (S228P) kappa (antibody, V domains shown)
VH: QVQLQESGPGLVKPSQTLSLTCSFSGISLTTSGMGVGWIRQPPGKGLEWLADIFWDDNKYYNPSLKSRVTISVDTSKNQFSLKLSSVTAADTAVYYCVRVYYKNDGYFDVWGQGTLVTVSS
VL: EIVMTQSPATLSVSPGERATLSCRASKSVTTSGYSFMHWYQQKPGQAPRLLIYLASNLEPGIPARFSGSGSGTEFTLTISSLQSEDFAVYYCQHSRELPYTFGQGTKLEIKR
notes: variable regions from U.S. Pat. Publ
B2: 1H7.C7 mouse/human chimeric IgG4 (S228P) kappa (antibody, V domains shown)
VH: EVQLVESGGGLVMPGGSRRLSCAASGFTFSDSGMYWVRQAPEKGLEWIAYISSGSDTLYYAATVKGRFTISRDNAKNTLFLQMTSLRSEDTAIYYCAKRNFYGYDVMDYWGQGTSVTVSS
VL: DIVMTQSHKFMSTSVGDRVSITCKASQDVSNVVAWYQQKPGQSPKLLIYSASYRYTGVPDRFAGSGSGTDFTFTISSVQAEDLAVYYCQQHYSTPWTFGGGTKLEIKR
B3: 9A10.C4 mouse/human chimeric IgG4 (S228P) kappa (antibody, V domains shown)
VH: EVQLVESGGALVQPGGSLKLSCVASGFSFSNCVMSWVRQSPEKRLEWVATIGSDGSYSYYQDNVKGRFTVSRDNAKNTLYLQMSSLGSEDTALYYCGRHIYGYDVVDYWGQGTSLTVSS
VL: B2 VL with S20T, Y36F, Y55F, T56G, A63T, S93D, W96L, G100T, K103T, I106L
B4: 13E11.A4 mouse/human chimeric IgG4 (S228P) kappa (antibody)
heavy: not shown
light: DIVMTQSHKFMSTSVGDNVSITCKASQYVSNTVAWYQQKPGQSPKLLIYSASYRNTGVPDRFTGSGSGTNFTFTISNMQAEDLAFYYCQQHYTSPLTFGAGTKLELKRTVAAPSVFIFPPSDEQLKSGTASVVCLLNNFYPREAKVQWKVDNALQSGNSQESVTEQDSKDSTYSLSSTLTLSKADYEKHKVYACEVTHQGLSSPVTKSFNRGEC
B5: 10E8.B6 mouse/human chimeric IgG4 (S228P) kappa (antibody, V domains shown)
VH: EVQLQQSGPELMKPGDSVKMSCKASGYTFTDYYMDWVKQSHGKSLEWIGYIYPNIDFTTYNQKFKGKATLTVDKSSNTAYMELHSLTSEDSAVYYCTRRDLPLHGSAYYFDYWGQGTTLTVSS
VL: DIVMSQSPSSLAVSAGEKVTMSCKSSQSLLNSRTRKNYLAWYQQKPGQSPKLLIYWASTRESGVPDRFTGSGSGTDFTLTISSVQAEDLAVYYCKQSYDLFTFGSGTKLEIKR
B6: 5D2.C8 mouse/human chimeric IgG4 (S228P) kappa (antibody, V domains shown)
VH: EVKLVESGGGLVKPGGSLKLSCAVSGFTFSNSAMSWVRQTPAKRLEWVAYISISGDNTYYPDSVKGRFTISRDNAKNTLYLQMSSLRSEDTAMYYCARRGYDYDGFTHWGQGTLVTVSA
VL: DILLTQSPAILSVSPGERVSFSCRASQNIGTSIHWYQQRTNGSPRLLIKYASQSISGIPSRFSGSGSGTDFTLSINSVESEDIADYYCQQSYSWPLTFGTGTQLELKR
B7: 14F8.H6 mouse/human chimeric IgG4 (S228P) kappa (antibody, V domains shown)
VH: EVHLVESGGALVKPGGSLKLSCTASGFTFSNSVMSWIRQTPEKRLEWVATIGSGGTYIYYPDSVKGRFTISRDNSKNTLFLQMTSLRSEDTALYYCARHIYGYDVVDYWGQGTTLTVST
VL: DIVMTQSHRFMSTSVGDRVSITCKASHDVSNVVAWYQQKPGQSPELLIYSASYRYTGVPARFTGSGSGTDFTFTISSVQAEDLAVYFCQQHFTTPLTFGAGTSLEVRR
B8: h16E10.C humanized IgG4 (S228P) kappa (antibody, V domains shown)
VH: QVQLVQSGAEVKKPGASVKVSCKASGYTFTNYWLGWVRQAPGQGLEWMGDIYPGGGYTNYNEKFQGRVTMTADTSTSTAYMELSSLRSEDTAVYYCAKFYYYGSSYYFDSWGQGTTVTVSS
VL: DIVMTQSPDSLAVSLGERATINCKSSQSLLNSGNQENYLAWYQQKPGQPPKLLIYGASTRESGVPDRFSGSGSGTDFTLTISSLQAEDVAVYYCQNDHSYPLTFGGGTKLEIKR
B9: A1 anti-VSIG4 antibody, human IgG4 (S228P) kappa (antibody, V domains shown)
VH: QVTLKESGPTLVKPTQTLTLTCTFSGISLTTSGMGVGWIRQPPGKALEWLADIFWDDNKYYNPSLKSRLTITKDTSKNQVVLTMTNMDPVDTATYYCVRVYYKNDGYFDVWGKGTTVTVSS
VL: DIVLTQSPLSLPVTLGQPASISCRASKSVTTSGYSFMHWYQQRPGQSPRLLIYLASNLEPGVPDRFSGSGSGTDFTLKISRVEAEDVGVYYCQQSGELPYTFGQGTKLEIKR
notes: as for B1
B10: 1C6.D6 mouse/human chimeric IgG4 (S228P) kappa (antibody, V domains shown)
VH: QVQLQQPGAEMVRPGTSVKLSCKASGYTFTSYWMHWVKQRPGQGLEWIGKIDPSHNKTHYIQKFEDKATLTVDKSSSTAYMHLNSLTSEDSAVYYCVTWDGDFLYWGQGTLVTVSA
VL: NIVLTQSPASLTVSLGQRATISCRASESVDSYGNSFMHWYQQKPGQPPKLLIYITSNLQSGVPARFSGGGSRTDFTLTIDPVEADDAATYYCQQNNEDPWTFGGGTKLEIKR
notes: also called 1C6.D6b
B11: 16F6.E1 mouse/human chimeric IgG4 (S228P) kappa (antibody, V domains shown)
VH: QVQLQQPGAEMVRPGASLKLSCKASGYTFTSYWMHWVKQRPGQGLEWIGKIDPSKNTTHYNQNFRDKATLTVDRSSSTAYMQLNSLTSEDSAVYFCVTWDGDFTYWGQGTLVTISA
VL: B10 VL with A9P, T12A, I54L, T55A, Q59E, G69S, Y91F, Q93H
B12: h16E10.D humanized IgG4 (S228P) kappa (antibody)
heavy: not shown
light: DIVLTQSPLSLPVTPGEPASISCRSSQSLLNSGNQENYLAWYLQKPGQSPQLLIYGASTRESGVPDRFSGSGSGTDFTLKISRVEAEDVGVYYCQNDHSYPLTFGGGTKLEIKRTVAAPSVFIFPPSDEQLKSGTASVVCLLNNFYPREAKVQWKVDNALQSGNSQESVTEQDSKDSTYSLSSTLTLSKADYEKHKVYACEVTHQGLSSPVTKSFNRGEC
B13: h16E10.F humanized IgG4 (S228P) kappa (antibody)
heavy: not shown
light: B12 light with L4M
B14: h16E10.E humanized IgG4 (S228P) kappa (antibody)
heavy: not shown
light: B12 light
B15: h16E10.G humanized IgG4 (S228P) kappa (antibody)
heavy: not shown
light: B12 light with L4M
B16: h14D12.D humanized IgG4 (S228P) kappa (antibody)
heavy: not shown
light: DVQMTQSPSSLSASVGDRVTITCRASQSVDYDGDSYMNWYQQKPGKAPKLLIYAASNLESGVPSRFSGSGSGTDFTLTISSLQPEDFATYYCQQSNEDPRTFGGGTKLEIKRTVAAPSVFIFPPSDEQLKSGTASVVCLLNNFYPREAKVQWKVDNALQSGNSQESVTEQDSKDSTYSLSSTLTLSKADYEKHKVYACEVTHQGLSSPVTKSFNRGEC
B17: h14D12.E humanized IgG4 (S228P) kappa (antibody, V domains shown)
VH: QIQLVQSGSELKKPGASVKVSCKASGYTFTNYGMNWVRQAPGQGLEWMGLINTYTGEPTYADGFTGRFVFSLDTSVSTAYLQISSLKAEDTAVYYCARERIYGYLHYFDYWGQGTTVTVSS
VL: DVQMTQSPSSLSASVGDRVTITCRASQSVDYDGDSYMNWYQQKPGKAPKLLIYAASNLESGVPSRFSGSGSGTDFTLTISSLQPEDFATYYCQQSNEDPRTFGGGTKLEIKR
B18: h14D12.G humanized IgG4 (S228P) kappa (antibody)
heavy: not shown
light: B16 light with V2I
B19: h14D12.F humanized IgG4 (S228P) kappa (antibody, V domains shown)
VH: QIQLVQSGAEVKKPGASVKVSCKASGYTFTNYGMNWVRQAPGQGLEWMGLINTYTGEPTYADKFQGRVTMTLDTSTSTAYMELSSLRSEDTAVYYCARERIYGYLHYFDYWGQGTTVTVSS
VL: B17 VL
B20: h14D12.H humanized IgG4 (S228P) kappa (antibody, V domains shown)
VH: B19 VH with M70F, T76A, Y95F
VL: B17 VL with V2I

Assays:
Human VSIG4-L-Fc [1] = biological target: T3, Human VSIG4-L-Fc (human); experiment: BLI cross-blocking on hVSIG4-L-Fc, competitor 12A12 first
T3 construct: also called hVSIG4-L-Fc; hVSIG4-L

Human VSIG4-L-Fc [2] = biological target: T3, Human VSIG4-L-Fc; experiment: BLI cross-blocking on hVSIG4-L-Fc, competitor 14C05 first
Human VSIG4-L-His = biological target: T1, Human VSIG4-L-His; experiment: BLI, IgG on AHC sensor, antigen 100 nM
[3] = biological target: T2, Cynomolgus Monkey VSIG4-L-His; experiment: BLI, IgG on AHC sensor, antigen 100 nM

Row | Binder | binding signal (nm shift) (Human VSIG4-L-Fc [1]) [nm] | binding signal (nm shift) (Human VSIG4-L-Fc [2]) [nm] | KD relative to parental chimera (Human VSIG4-L-His) [fold] | KD relative to parental chimera [3] [fold]
1 | B1 | 0.3 | 0.29 |  | 
2 | B2 | 0.08 | 0.13 |  | 
3 | B3 | 0.1 | 0.14 |  | 
4 | B4 | 0.07 | 0.24 |  | 
5 | B5 | 0.06 | 0.11 |  | 
6 | B6 | 0.07 | 0.12 |  | 
7 | B7 | 0.1 | 0.15 |  | 
8 | B8 |  |  | 1.7 | 1.1
9 | B9 | 0.57 | 0.55 |  | 
10 | B10 | 0.08 | 0.59 |  | 
11 | B11 | 0.09 | 0.56 |  | 
12 | B12 |  |  | 0.6 | 1.1
13 | B13 |  |  | 0.7 | 1
14 | B14 |  |  | 0.8 | 1.3
15 | B15 |  |  | 0.9 | 0.4
16 | B16 |  |  | 1 | 1
17 | B17 |  |  | 0.9 | 0.9
18 | B18 |  |  | 1 | 1.1
19 | B19 |  |  | 0.8 | 1
20 | B20 |  |  | 1.1 | 1.2
